{"source": "paper PMC3320602", "target": "HIV-1 JR-FL envelope glycoprotein (gp120 and gp41) on GFP-labelled Env-pseudotyped particles (HIV-1 isolate JR-FL)"}
{"substance": "tetrameric CD4-IgG2 molecule (PRO 542) (from UniProt P01730 26-396; P01730 26-396) (Fc fusion)", "values": [{"measurement": "IC50 of inhibition of JR-FL infection of TZM-bl cells (luciferase), cell-cell transmission from infected PBMC against cell-free virus; the pair blocked is m1+m3", "value": 40, "unit": "fold"}]}
